Data as given in the array DNA melting data of Ke et al..

Test: melting temperature; melt of duplexes
Conditions: sodium 0.0675 M; strand 1 µM

| Substance | Tm |
| --- | --- |
| CGACGTGCGCAATGTGCTG+CAGCACATACGGCACGTCG ((((((((...((((((((+))))))))...)))))))) | 48.6 °C |
| CGACGTGCGCAATGTGCTG+CAGCACATCACGCACGTCG (((((((((..((((((((+))))))))..))))))))) | 54 °C |
| CGACGTGCGCAATGTGCTG+CAGCACATCCCGCACGTCG (((((((((..((((((((+))))))))..))))))))) | 52.5 °C |
| CGACGTGCGCAATGTGCTG+CAGCACATCGGGCACGTCG ((((((((.(.((((((((+)))))))).).)))))))) | 52.7 °C |
| CGACGTGCGCAATGTGCTG+CAGCACATCTAGCACGTCG ((((((((...((((((((+))))))))...)))))))) | 51.8 °C |
| CGACGTGCGCAATGTGCTG+CAGCACATCTCGCACGTCG (((((((((..((((((((+))))))))..))))))))) | 52.8 °C |
| CGACGTGCGCAATGTGCTG+CAGCACATGATGCACGTCG ((((((((...((((((((+))))))))...)))))))) | 52.5 °C |
| CGACGTGCGCAATGTGCTG+CAGCACATGCAGCACGTCG ((((((((...((((((((+))))))))...)))))))) | 57.9 °C |
| CGACGTGCGCAATGTGCTG+CAGCACATGCCGCACGTCG (((((((((..((((((((+))))))))..))))))))) | 56.6 °C |
| CGACGTGCGCAATGTGCTG+CAGCACATGGCGCACGTCG ((((((((((.((((((((+)))))))).)))))))))) | 63 °C |
| CGACGTGCGCAATGTGCTG+CAGCACATGGGGCACGTCG ((((((((.(.((((((((+)))))))).).)))))))) | 56.5 °C |
| CGACGTGCGCAATGTGCTG+CAGCACATGGTGCACGTCG ((((((((.(.((((((((+)))))))).).)))))))) | 54.3 °C |
| CGACGTGCGCAATGTGCTG+CAGCACATGTTGCACGTCG ((((((((...((((((((+))))))))...)))))))) | 51.5 °C |
| CGACGTGCGCAATGTGCTG+CAGCACATTATGCACGTCG ((((((((..(((((((((+)))))))))..)))))))) | 52.6 °C |
| CGACGTGCGCAATGTGCTG+CAGCACATTCAGCACGTCG ((((((((..(((((((((+)))))))))..)))))))) | 53.1 °C |
| CGACGTGCGCAATGTGCTG+CAGCACATTCGGCACGTCG ((((((((..(((((((((+)))))))))..)))))))) | 52.5 °C |
| CGACGTGCGCAATGTGCTG+CAGCACATTCTGCACGTCG ((((((((..(((((((((+)))))))))..)))))))) | 52.3 °C |
| CGACGTGCGCAATGTGCTG+CAGCACATTGTGCACGTCG ((((((((.((((((((((+)))))))))).)))))))) | 59.9 °C |
| CGACGTGCGCAATGTGCTG+CAGCACATTTAGCACGTCG ((((((((..(((((((((+)))))))))..)))))))) | 53 °C |
| CGACGTGCGCCATGTGCTG+CAGCACATAAAGCACGTCG ((((((((...((((((((+))))))))...)))))))) | 53.6 °C |
| CGACGTGCGCCATGTGCTG+CAGCACATAAGGCACGTCG ((((((((...((((((((+))))))))...)))))))) | 48.6 °C |
| CGACGTGCGCCATGTGCTG+CAGCACATACCGCACGTCG (((((((((..((((((((+))))))))..))))))))) | 51 °C |
| CGACGTGCGCCATGTGCTG+CAGCACATACGGCACGTCG ((((((((...((((((((+))))))))...)))))))) | 46.6 °C |
| CGACGTGCGCCATGTGCTG+CAGCACATAGAGCACGTCG ((((((((.(.((((((((+)))))))).).)))))))) | 54.4 °C |

| Substance | Tm |
| --- | --- |
| CGACGTGCGCCATGTGCTG+CAGCACATAGCGCACGTCG ((((((((((.((((((((+)))))))).)))))))))) | 58.9 °C |
| CGACGTGCGCCATGTGCTG+CAGCACATATGGCACGTCG ((((((((...((((((((+))))))))...)))))))) | 48.1 °C |
| CGACGTGCGCCATGTGCTG+CAGCACATATTGCACGTCG ((((((((...((((((((+))))))))...)))))))) | 47.3 °C |
| CGACGTGCGCCATGTGCTG+CAGCACATCAGGCACGTCG ((((((((...((((((((+))))))))...)))))))) | 47.8 °C |
| CGACGTGCGCCATGTGCTG+CAGCACATCCTGCACGTCG ((((((((...((((((((+))))))))...)))))))) | 47.3 °C |
| CGACGTGCGCCATGTGCTG+CAGCACATCGCGCACGTCG ((((((((((.((((((((+)))))))).)))))))))) | 58.3 °C |
| CGACGTGCGCCATGTGCTG+CAGCACATCGGGCACGTCG ((((((((.(.((((((((+)))))))).).)))))))) | 51.2 °C |
| CGACGTGCGCCATGTGCTG+CAGCACATCGTGCACGTCG ((((((((.(.((((((((+)))))))).).)))))))) | 47.7 °C |
| CGACGTGCGCCATGTGCTG+CAGCACATGACGCACGTCG (((((((((.(((((((((+))))))))).))))))))) | 59.3 °C |
| CGACGTGCGCCATGTGCTG+CAGCACATGATGCACGTCG ((((((((..(((((((((+)))))))))..)))))))) | 54.9 °C |
| CGACGTGCGCCATGTGCTG+CAGCACATGGAGCACGTCG ((((((((.((((((((((+)))))))))).)))))))) | 62.3 °C |
| CGACGTGCGCCATGTGCTG+CAGCACATGGTGCACGTCG ((((((((.((((((((((+)))))))))).)))))))) | 62.5 °C |
| CGACGTGCGCCATGTGCTG+CAGCACATGTAGCACGTCG ((((((((..(((((((((+)))))))))..)))))))) | 55.1 °C |
| CGACGTGCGCCATGTGCTG+CAGCACATTAAGCACGTCG ((((((((...((((((((+))))))))...)))))))) | 52.1 °C |
| CGACGTGCGCCATGTGCTG+CAGCACATTACGCACGTCG (((((((((..((((((((+))))))))..))))))))) | 52.3 °C |
| CGACGTGCGCCATGTGCTG+CAGCACATTCAGCACGTCG ((((((((...((((((((+))))))))...)))))))) | 49.8 °C |
| CGACGTGCGCCATGTGCTG+CAGCACATTCCGCACGTCG (((((((((..((((((((+))))))))..))))))))) | 50.9 °C |
| CGACGTGCGCCATGTGCTG+CAGCACATTGAGCACGTCG ((((((((.(.((((((((+)))))))).).)))))))) | 52.6 °C |
| CGACGTGCGCCATGTGCTG+CAGCACATTGCGCACGTCG ((((((((((.((((((((+)))))))).)))))))))) | 59.3 °C |
| CGACGTGCGCCATGTGCTG+CAGCACATTTGGCACGTCG ((((((((...((((((((+))))))))...)))))))) | 47.4 °C |
| CGACGTGCGCGATGTGCTG+CAGCACATAAAGCACGTCG ((((((((...((((((((+))))))))...)))))))) | 54 °C |
| CGACGTGCGCGATGTGCTG+CAGCACATAACGCACGTCG (((((((((..((((((((+))))))))..))))))))) | 54.4 °C |
| CGACGTGCGCGATGTGCTG+CAGCACATAAGGCACGTCG ((((((((...((((((((+))))))))...)))))))) | 50 °C |
| CGACGTGCGCGATGTGCTG+CAGCACATACAGCACGTCG ((((((((...((((((((+))))))))...)))))))) | 51.7 °C |

| Substance | Tm |
| --- | --- |
| CGACGTGCGCGATGTGCTG+CAGCACATACTGCACGTCG ((((((((...((((((((+))))))))...)))))))) | 50.3 °C |
| CGACGTGCGCGATGTGCTG+CAGCACATATAGCACGTCG ((((((((...((((((((+))))))))...)))))))) | 51.8 °C |
| CGACGTGCGCGATGTGCTG+CAGCACATCACGCACGTCG (((((((((.(((((((((+))))))))).))))))))) | 62.2 °C |
| CGACGTGCGCGATGTGCTG+CAGCACATCCTGCACGTCG ((((((((..(((((((((+)))))))))..)))))))) | 54.4 °C |
| CGACGTGCGCGATGTGCTG+CAGCACATCGAGCACGTCG ((((((((.((((((((((+)))))))))).)))))))) | 63.1 °C |
| CGACGTGCGCGATGTGCTG+CAGCACATCGCGCACGTCG (((((((((((((((((((+))))))))))))))))))) | 69.3 °C |
| CGACGTGCGCGATGTGCTG+CAGCACATCGTGCACGTCG ((((((((.((((((((((+)))))))))).)))))))) | 62.4 °C |
| CGACGTGCGCGATGTGCTG+CAGCACATCTTGCACGTCG ((((((((..(((((((((+)))))))))..)))))))) | 53.9 °C |
| CGACGTGCGCGATGTGCTG+CAGCACATGAAGCACGTCG ((((((((...((((((((+))))))))...)))))))) | 54.4 °C |
| CGACGTGCGCGATGTGCTG+CAGCACATGATGCACGTCG ((((((((...((((((((+))))))))...)))))))) | 51 °C |
| CGACGTGCGCGATGTGCTG+CAGCACATGCAGCACGTCG ((((((((...((((((((+))))))))...)))))))) | 55.8 °C |
| CGACGTGCGCGATGTGCTG+CAGCACATGCCGCACGTCG (((((((((..((((((((+))))))))..))))))))) | 55.9 °C |
| CGACGTGCGCGATGTGCTG+CAGCACATGTCGCACGTCG (((((((((..((((((((+))))))))..))))))))) | 55.5 °C |
| CGACGTGCGCGATGTGCTG+CAGCACATGTTGCACGTCG ((((((((...((((((((+))))))))...)))))))) | 50.5 °C |
| CGACGTGCGCGATGTGCTG+CAGCACATTACGCACGTCG (((((((((..((((((((+))))))))..))))))))) | 54.9 °C |
| CGACGTGCGCGATGTGCTG+CAGCACATTCAGCACGTCG ((((((((...((((((((+))))))))...)))))))) | 51.7 °C |
| CGACGTGCGCGATGTGCTG+CAGCACATTCCGCACGTCG (((((((((..((((((((+))))))))..))))))))) | 54.9 °C |
| CGACGTGCGCGATGTGCTG+CAGCACATTCGGCACGTCG ((((((((...((((((((+))))))))...)))))))) | 53.2 °C |
| CGACGTGCGCGATGTGCTG+CAGCACATTGCGCACGTCG ((((((((((.((((((((+)))))))).)))))))))) | 63.5 °C |
| CGACGTGCGCGATGTGCTG+CAGCACATTTCGCACGTCG (((((((((..((((((((+))))))))..))))))))) | 53.5 °C |
| CGACGTGCGCGATGTGCTG+CAGCACATTTGGCACGTCG ((((((((...((((((((+))))))))...)))))))) | 49.7 °C |
| CGACGTGCGCTATGTGCTG+CAGCACATAGAGCACGTCG ((((((((.((((((((((+)))))))))).)))))))) | 58.7 °C |
| CGACGTGCGCTATGTGCTG+CAGCACATAGCGCACGTCG (((((((((((((((((((+))))))))))))))))))) | 66.4 °C |
| CGACGTGCGCTATGTGCTG+CAGCACATCCAGCACGTCG ((((((((...((((((((+))))))))...)))))))) | 49.8 °C |
